Results as given in US12295987B2, “Method of using a GIP/GLP1 co-agonist for diabetes” (Eli Lilly and Company, priority 2018, dated 2025).

Molecular target: T1, human gastric inhibitory peptide receptor (hGIPR) (Homo sapiens, UniProt P48546)
T1 construct: expressed in transfected cells; host or cells: HEK293
T1 sequence (P48546 22-466): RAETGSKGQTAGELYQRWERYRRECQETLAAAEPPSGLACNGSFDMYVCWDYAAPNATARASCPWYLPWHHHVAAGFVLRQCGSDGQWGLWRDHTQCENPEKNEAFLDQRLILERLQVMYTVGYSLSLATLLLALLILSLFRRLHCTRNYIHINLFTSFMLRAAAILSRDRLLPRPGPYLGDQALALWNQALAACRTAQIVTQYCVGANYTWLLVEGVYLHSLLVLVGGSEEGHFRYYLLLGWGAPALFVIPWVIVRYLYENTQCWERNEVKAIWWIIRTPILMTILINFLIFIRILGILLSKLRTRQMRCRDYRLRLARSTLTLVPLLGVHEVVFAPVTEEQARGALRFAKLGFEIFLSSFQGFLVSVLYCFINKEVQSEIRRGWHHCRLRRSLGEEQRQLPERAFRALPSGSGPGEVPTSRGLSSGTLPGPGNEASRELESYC
Assay: cAMP pharmacological functional assay in presence of 0.1% casein, hGIPR
Assay type: cell-based
Details: ratio of hGIPR to hGLP1R cAMP EC50 ratios

Substance | [hGIPR/hGLP1R] EC50 Ratio
Y-Aib-EGT-αMeF(2F)-TSDYSI-αMeL-LDEK((2-[2-(2-Amino-ethoxy)-ethoxy]-acetyl)2-(γGlu)-CO—(CH2)18—CO2H)AQ-Aib-EFIPYLIEGGPSSGAPPPS-NH2 (YXEGTXTSDYSIXLDEKAQXEFIPYLIEGGPSSGAPPPS; Aib, αMeF(2F), αMeL; acylated lysine C20 diacid; amide; (2)..(2) Xaa at position 2 is Aib; (6)..(6) Xaa at position 6 is alpha-methyl-Phe(2F); (13)..(13) Xaa at position 13 is alpha-methyl-Leu; MOD_RES (17)..(17) Lys at position 17 is chemically modified by conjugation of the epsilon-amino group of the Lys side chain with (2-[2-(2-amino-ethoxy)-ethoxy]-acetyl)2-(gamma-Glu)-CO-(CH2)18- CO2H; (20)..(20) Xaa at position 20 is Aib; MOD_RES (39)..(39) Ser a) [Peptide 151] | 9.42
Y-Aib-EGT-αMeF(2F)-TSDYSI-αMeL-LD-Orn-K((2-[2-(2-Amino-ethoxy)-ethoxy]-acetyl)2-(γGlu)-CO—(CH2)18—CO2H)AQ-Aib-EFI-(D-Glu)-YLIEGGPSSGAPPPS-NH2 (YXEGTXTSDYSIXLDXKAQXEFIXYLIEGGPSSGAPPPS; Aib, Orn, αMe residues, lipidated Lys, D-Glu, amide; (2)..(2) Xaa at position 2 is Aib; (6)..(6) Xaa at position 6 is alpha-MeF(2F); (13)..(13) Xaa at position 13 is alpha-MeL; (16)..(16) Xaa at position 16 is Orn; MOD_RES (17)..(17) K at position 17 is chemically modified by conjugation of the epsilon-amino group of the K side chain with (2-[2-(2-amino-ethoxy)-ethoxy]-acetyl)2-(gamma-Glu)-CO-(CH2)18- CO2H; (20)..(20) Xaa at position 20 is Aib; (24)) [Peptide 3] | 3.61
Y-Aib-EGT-αMeF(2F)-TSD-4Pal-SI-αMeL-LDKK((2-[2-(2-Amino-ethoxy)-ethoxy]-acetyl)-(γGlu)-(2-[2-(2-Amino-ethoxy)-ethoxy]-acetyl)-CO—(CH2)18—CO2H)AQ-Aib-EFI-(D-Glu)-YLIEGGPSSGAPPPS-NH2 (YXEGTXTSDXSIXLDKKAQXEFIXYLIEGGPSSGAPPPS; Aib, αMeF(2F), 4Pal, αMeL, D-Glu; lipidated K; amide; (2)..(2) Xaa at position 2 is Aib; (6)..(6) Xaa at position 6 is alpha-methyl-Phe(2F); (10)..(10) Xaa at position 10 is 4Pal; (13)..(13) Xaa at position 13 is alpha-methyl-Leu; MOD_RES (17)..(17) Lys at position 17 is chemically modified by conjugation of the epsilon-amino group of the Lys side chain with (2-[2-(2-Amino-ethoxy)-ethoxy]-acetyl)-(gamma-Glu)-(2-[2-(2-Amino- ethoxy)-ethoxy]-acetyl)-CO) [Peptide 202] | 6.73
Y-Aib-EGT-αMeF-TSDYSI-αMeL-LDKK((2-[2-(2-Amino-ethoxy)-ethoxy]-acetyl)2-(γGlu)2-CO—(CH2)18—CO2H)AQ-Aib-AFIEYLIEGGPSSGAPPPS-NH2 (YXEGTXTSDYSIXLDKKAQXAFIEYLIEGGPSSGAPPPS; Aib, αMeF, αMeL; acylated lysine C20 diacid; amide; (2)..(2) Xaa at position 2 is Aib; (6)..(6) Xaa at position 6 is alpha-methyl-Phe; (13)..(13) Xaa at position 13 is alpha-methyl-Leu; MOD_RES (17)..(17) Lys at position 17 is chemically modified by conjugation of the epsilon-amino group of the Lys side chain with (2-[2-(2-amino-ethoxy)-ethoxy]-acetyl)2-(gamma-Glu)2-CO-(CH2)18- CO2H; (20)..(20) Xaa at position 20 is Aib; MOD_RES (39)..(39) Ser at p) [Peptide 125] | 2.89
Y-Aib-EGT-αMeF(2F)-TSDHSI-αMeL-LDEK((2-[2-(2-Amino-ethoxy)-ethoxy]-acetyl)2-(εK)-CO—(CH2)16—CO2H)AQ-Aib-TFI-(D-Glu)-YLIEGGPSSGAPPPS-NH2 (YXEGTXTSDHSIXLDEKAQXTFIXYLIEGGPSSGAPPPS; Aib, αMeF(2F), αMeL, D-Glu; εK-lipidated K; amide; (2)..(2) Xaa at position 2 is Aib; (6)..(6) Xaa at position 6 is alpha-methyl-Phe(2F); (13)..(13) Xaa at position 13 is alpha-methyl-Leu; MOD_RES (17)..(17) Lys at position 17 is chemically modified by conjugation of the epsilon-amino group of the Lys side chain with (2-[2-(2-amino-ethoxy)-ethoxy]-acetyl)2-(epsilon-Lys)-CO-(CH2)16- CO2H; (20)..(20) Xaa at position 20 is Aib; (24)..(24) Xaa at posi) [Peptide 176] | 4.71
Y-Aib-EGT-αMeF(2F)-TSDLSI-αMeL-LDEK((2-[2-(2-Amino-ethoxy)-ethoxy]-acetyl)2-(γGlu)-CO—(CH2)18—CO2H)AQ-Aib-EFI-(D-Glu)-YLIEGGPSSGAPPPS-NH2 (YXEGTXTSDLSIXLDEKAQXEFIXYLIEGGPSSGAPPPS; Aib, αMeF(2F), αMeL, D-Glu; lipidated K; amide; (2)..(2) Xaa at position 2 is Aib; (6)..(6) Xaa at position 6 is alpha-methyl-Phe(2F); (13)..(13) Xaa at position 13 is alpha-methyl-Leu; MOD_RES (17)..(17) Lys at position 17 is chemically modified by conjugation of the epsilon-amino group of the Lys side chain with (2-[2-(2-amino-ethoxy)-ethoxy]-acetyl)2-(gamma-Glu)-CO-(CH2)18- CO2H; (20)..(20) Xaa at position 20 is Aib; (24)..(24) Xaa at positi) [Peptide 183] | 3.68
Y-Aib-EGT-αMeF(2F)-TSD-4Pal-SI-αMeL-LDEK((2-[2-(2-Amino-ethoxy)-ethoxy]-acetyl)2-(γGlu)-CO—(CH2)18—CO2H)AQ-Aib-EFI-Aib-YLIEGGPSSGAPPPS-NH2 (YXEGTXTSDXSIXLDEKAQXEFIXYLIEGGPSSGAPPPS; Aib, αMeF(2F), 4Pal, αMeL; lipidated K; amide; (2)..(2) Xaa at position 2 is Aib; (6)..(6) Xaa at position 6 is alpha-methyl-Phe(2F); (10)..(10) Xaa at position 10 is 4Pal; (13)..(13) Xaa at position 13 is alpha-methyl-Leu; MOD_RES (17)..(17) Lys at position 17 is chemically modified by conjugation of the epsilon-amino group of the Lys side chain with (2-[2-(2-amino-ethoxy)-ethoxy]-acetyl)2-(gamma-Glu)-CO-(CH2)18- CO2H; (20)..(20) Xaa at posit) [Peptide 189] | 3.61
Y-Aib-EGT-αMeF(2F)-TSDHSI-αMeL-LDEK((2-[2-(2-Amino-ethoxy)-ethoxy]-acetyl)2-(γGlu)-CO—(CH2)18—CO2H)AQ-Aib-TFI-(D-Glu)-YLIEGGPSSGAPPPS-NH2 (YXEGTXTSDHSIXLDEKAQXTFIXYLIEGGPSSGAPPPS; Aib, αMeF(2F), αMeL, D-Glu; lipidated K; C-terminal amide; (2)..(2) Xaa at position 2 is Aib; (6)..(6) Xaa at position 6 is alpha-methyl-Phe(2F); (13)..(13) Xaa at position 13 is alpha-methyl-Leu; MOD_RES (17)..(17) Lys at position 17 is chemically modified by conjugation of the epsilon-amino group of the Lys side chain with (2-[2-(2-amino-ethoxy)-ethoxy]-acetyl)2-(gamma-Glu)-CO-(CH2)18- CO2H; (20)..(20) Xaa at position 20 is Aib; (24)..(24) Xaa at positi) [Peptide 168] | 9.69
